Laboratory results reported in publication PMC5653232.

Target: H3K9Cme3-NCP (fluorescein-labelled DNA, unlabelled wild type H2A) (human) (UniProt P0C0S8)
Assay: fluorescence polarisation

CHD3 PHD1/2 (373–508), sequence (Q12873 373-508): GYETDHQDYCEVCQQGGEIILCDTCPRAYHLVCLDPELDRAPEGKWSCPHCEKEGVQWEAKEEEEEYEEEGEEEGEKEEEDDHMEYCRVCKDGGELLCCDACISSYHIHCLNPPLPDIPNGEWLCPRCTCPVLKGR

- Kd: 1.4 µM
Substance: CHD3 PHD1/2 (373–508) (from UniProt Q12873 373-508) (domain or fragment)
